These results are taken from patent publication US20210347912A1.

The experiment deals with Human YKL-40 also known as Chitinase-3-like protein 1 (CHI3L1) (human) (UniProt P36222). As to the kind of experiment: phage ELISA, plate coated with 0.5 ug purified YKL-40, anti-M13-HRP/TMB, well F2.
UniProt P36222, sequence (P36222 22-383 limits assumed): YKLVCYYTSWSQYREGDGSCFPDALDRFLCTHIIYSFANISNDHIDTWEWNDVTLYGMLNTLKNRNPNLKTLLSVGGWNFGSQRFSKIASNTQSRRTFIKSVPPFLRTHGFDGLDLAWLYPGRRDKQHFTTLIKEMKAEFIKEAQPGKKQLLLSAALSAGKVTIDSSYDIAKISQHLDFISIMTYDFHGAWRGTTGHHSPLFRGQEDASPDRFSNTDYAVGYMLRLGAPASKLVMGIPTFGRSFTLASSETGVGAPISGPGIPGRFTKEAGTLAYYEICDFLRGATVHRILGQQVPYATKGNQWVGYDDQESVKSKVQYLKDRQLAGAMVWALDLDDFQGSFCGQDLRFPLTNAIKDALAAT

B1: 2B8 predator (VHH)
VHH: EVQLLESGGGLVQPGGSLRLSCAASGFRDSDEDMGWVRQAPGKGLEWVSSIYAPNGSTYYADSVKGRFTISRDNSKNTLYLQMNSLRAEDTAVYYCASNTYDAFDYWGQGTLVTVSS
The molecule B1 gave an ELISA signal of 0.054.
